Data from paper PMC7589614.
Like-named read-outs stand apart in the source and are kept apart here.

How the values were obtained:
[1] = biological target: AbnA-D2 (D2), his-tagged arabinase family protein (Geobacillus stearothermophilus T-6) (UniProt B3EYN2); conditions: 5'-amino; Selection buffers listed (assay buffer and temperature not stated in material): AGR2 137 mM NaCl, 20 mM KCl, 10 mM Na2HPO4, 2 mM KH2PO4 pH 7.4; 6H7 50 mM …; cited from earlier work
[2] = biological target: AbnA-D2 (D2), his-tagged arabinase family protein (Geobacillus stearothermophilus T-6) (UniProt B3EYN2); assay: porous silicon RIFTS (EOT) biosensor; conditions: 5'-amino; Selection buffers listed (assay buffer and temperature not stated in material): AGR2 137 mM NaCl, 20 mM KCl, 10 mM Na2HPO4, 2 mM KH2PO4 pH 7.4; 6H7 50 mM …

GCTATGGGTGGTCTGGTTGGGATTGGCCCCGGGAGCTGGC [anti-his tag aptamer 6H7]
Kd [1]: 4.6 µM | Kd [2]: 29 µM
